Reference: paper PMC12177876, “Nanoflow Size Exclusion Chromatography–Native Mass Spectrometry of Intact Proteoforms and Protein Complexes” (Analytical Chemistry, 2025)

B1: alcohol dehydrogenase (enzyme, UniProt P00330 1-348, looked up)
chain: MSIPETQKGVIFYESHGKLEYKDIPVPKPKANELLINVKYSGVCHTDLHAWHGDWPLPVKLPLVGGHEGAGVVVGMGENVKGWKIGDYAGIKWLNGSCMACEYCELGNESNCPHADLSGYTHDGSFQQYATADAVQAAHIPQGTDLAQVAPILCAGITVYKALKSANLMAGHWVAISGAAGGLGSLAVQYAKAMGYRVLGIDGGEGKEELFRSIGGEVFIDFTKEKDIVGAVLKATDGGAHGVINVSVSEAAIEASTRYVRANGTTVLVGMPAGAKCCSDVFNQVVKSISIVGSYVGNRADTREALDFFARGLVKSPIKVVGLSTLPEIYEKMEKGQIVGRYVVDTSK
notes: The tetramer mass fits S. cerevisiae ADH1; this is surmised, the source is in the supplement; also called ADH
B2: catalase (enzyme, UniProt P00432 1-527, looked up)
chain: MADNRDPASDQMKHWKEQRAAQKPDVLTTGGGNPVGDKLNSLTVGPRGPLLVQDVVFTDEMAHFDRERIPERVVHAKGAGAFGYFEVTHDITRYSKAKVFEHIGKRTPIAVRFSTVAGESGSADTVRDPRGFAVKFYTEDGNWDLVGNNTPIFFIRDALLFPSFIHSQKRNPQTHLKDPDMVWDFWSLRPESLHQVSFLFSDRGIPDGHRHMNGYGSHTFKLVNANGEAVYCKFHYKTDQGIKNLSVEDAARLAHEDPDYGLRDLFNAIATGNYPSWTLYIQVMTFSEAEIFPFNPFDLTKVWPHGDYPLIPVGKLVLNRNPVNYFAEVEQLAFDPSNMPPGIEPSPDKMLQGRLFAYPDTHRHRLGPNYLQIPVNCPYRARVANYQRDGPMCMMDNQGGAPNYYPNSFSAPEHQPSALEHRTHFSGDVQRFNSANDDNVTQVRTFYLKVLNEEQRKRLCENIAGHLKDAQLFIQKKAVKNFSDVHPEYGSRIQALLDKYNEEKPKNAVHTYVQHGSHLSAREKANL
notes: Bovine liver catalase is surmised; the source is in the supplement

Target: the molecule itself
Assay: SEC + native MS; nanoflow SEC-nMS of reference proteins: 50 nL of 1 mg mL^-1 protein injected, 200 um ID capillary SEC column, 0.5 uL min^-1, eluted with 200 mM AmAc; isCID varies by protein

Row | Protein | stoichiometry N
1 | B1 | 4
2 | B2 | 4
